According to the supplement of paper PMC9170038:

Tested on: MS2 coat protein
Test: apparent KD of MS2 coat protein; designed switch direction (-1 OFF switch, 1 ON switch): -1; higher = weaker reporter binding
Method in brief: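 An oligonucleotide input, 200 uM small-molecule ligand, or no input was present during titration of SNAP-549-labelled MS2 coat protein, which was doubled from 0.7 or 1.5 nM to 3 µM. Designed RNA switches had been transcribed on Illumina chips by stalled E. coli RNA polymerase. Apparent KD per design is the median over clusters of curves fitted to normalised cluster fluorescence.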

[1] = input ligand: microRNA oligo, concentration not stated
[2] = Eterna round: R95, input ligand: FMN 200 uM
[3] = Eterna round: R95, input ligand: microRNA oligo, concentration not stated
[4] = Eterna round: R95, input ligand: none

Sequence: AGCCUAGCAGGAUAUGCCCGGGAUAACAUGAGGAUCACCCAUGUGACUGAUUGAUGUCCUGCAGAAGGGCUAGGGA [JL-EX5-4.01 ViennaUCT mod] (Eterna round: R97, puzzle: Exclusion 5)
- apparent KD of MS2 coat protein (input ligand: FMN 200 uM): 154 nM
- apparent KD of MS2 coat protein (input ligand: none): 25.9 nM

Sequence: AGCGAGGCAGGAUAUACAUGAGGAUCACCCAUGUGCUUGCAUGGCGUGGGACGUCAACGUAGAAGGGCCAUGCC [EX3 #68] (Eterna round: R97, puzzle: Exclusion 3)
- apparent KD of MS2 coat protein (input ligand: FMN 200 uM): 76.3 nM
- apparent KD of MS2 coat protein (input ligand: none): 117 nM

Sequence: AGCGCCAUCGUGAGAUGGCGUAUUACAUGAGGAUCACCCAUGUAGGAUAUCGAUUGCUUUGCAGUCGAGAAGGACAUGUUCUUC [JL ENG3 3.80 Mod C] (Eterna round: R96, puzzle: Exclusion NG 3)
- apparent KD of MS2 coat protein (input ligand: FMN 200 uM): 66 nM
- apparent KD of MS2 coat protein [1]: 16 nM
- apparent KD of MS2 coat protein (input ligand: none): 23.2 nM

Sequence: AGCGCCAUCGUGAGAUGGCGUAUUACAUGAGGAUCACCCAUGUAGGAUAUCGAUUGCUUUGCAGUCGAGAAGGACAUGUUUUAG [JL ENG3 3.80 Mod E] (Eterna round: R96, puzzle: Exclusion NG 3)
- apparent KD of MS2 coat protein (input ligand: FMN 200 uM): 200 nM
- apparent KD of MS2 coat protein [1]: 69.4 nM
- apparent KD of MS2 coat protein (input ligand: none): 74.3 nM

Sequence: AGCUAGUGCCGAGGAUAUACAUGAGGAUCACCCAUGUAAGGCAGUCGGUUUCUGACUGCCAAUAUGUAGAAGGCGGCGUUGGCA [JL ENG2 1.48] (Eterna round: R96, puzzle: Exclusion NG 2)
- apparent KD of MS2 coat protein (input ligand: FMN 200 uM): 45.4 nM
- apparent KD of MS2 coat protein [1]: 15.8 nM
- apparent KD of MS2 coat protein (input ligand: none): 15.7 nM

Sequence: AGCUGAGCAGGAUAUACAUGAGGAUCACCCAUGUUGGUCAAGCGACGAUAGUCGCAAUGUAGAAGGGCUCAGCU [E3/8-D2] (Eterna round: R97, puzzle: Exclusion 3)
- apparent KD of MS2 coat protein (input ligand: FMN 200 uM): 114 nM
- apparent KD of MS2 coat protein (input ligand: none): 357 nM

Sequence: AGCUGUGGCCGAGGAUAUACACAUGAGGAUCACCCAUGUAGGCGCGGAAACGCGCUAAAAGGGUUGUAGAAGGCGGUCUCAGCA [Eli eng2 - 054] (Eterna round: R96, puzzle: Exclusion NG 2)
- apparent KD of MS2 coat protein (input ligand: FMN 200 uM): 471 nM
- apparent KD of MS2 coat protein [1]: 165 nM
- apparent KD of MS2 coat protein (input ligand: none): 114 nM

Sequence: AGCUGUGGCCGAGGAUAUACAUGAGGAUCACCCAUGUUACAUAAUUAGGCCGGGUAACCGGCUCCGUAGAAGGCGGUCUCAGCA [Eli eng2 - 004] (Eterna round: R96, puzzle: Exclusion NG 2)
- apparent KD of MS2 coat protein (input ligand: FMN 200 uM): 14.3 nM
- apparent KD of MS2 coat protein [1]: 11.7 nM
- apparent KD of MS2 coat protein (input ligand: none): 13.7 nM

Sequence: AGCUGUGGCCGAGGAUAUCUAAACCUUCAAACCGAAAUAUAAUCGGACAUGAGGAUCACCCAUGUAGAGAAGGCGGUCUCAGCA [Eli eng2 - 034] (Eterna round: R96, puzzle: Exclusion NG 2)
- apparent KD of MS2 coat protein [1]: 9.91 nM

Sequence: AGCUGUGGCCGAGGAUAUCUAUCUCAUAAAACCGAAAUAUAAUCGGACAUGAGGAUCACCCAUGUAGAGAAGGCGGUCUCAGCA [Eli eng2 - 095] (Eterna round: R96, puzzle: Exclusion NG 2)
- apparent KD of MS2 coat protein [1]: 20.1 nM

Sequence: AGCUGUGGCCGAGGAUAUCUAUCUCCAAUAACCGAAAUAUAAUCGGACAUGAGGAUCACCCAUGUAGAGAAGGCGGUCUCAGCA [Eli eng2 - 090] (Eterna round: R96, puzzle: Exclusion NG 2)
- apparent KD of MS2 coat protein [1]: 15 nM

Sequence: AGCUGUGGCCGAGGAUAUCUAUUAAUCCAAACCGAAAUAUAAUCGGACAUGAGGAUCACCCAUGUAGAGAAGGCGGUCUCAGCA [Eli eng2 - 077] (Eterna round: R96, puzzle: Exclusion NG 2)
- apparent KD of MS2 coat protein [1]: 53.5 nM

Sequence: AGCUGUGGCCGAGGAUAUCUGAUAGUCCCAACCGAAAUAUAAUCGGACAUGAGGAUCACCCAUGUAGAGAAGGCGGUCUCAGCA [Eli eng2 - 070] (Eterna round: R96, puzzle: Exclusion NG 2)
- apparent KD of MS2 coat protein (input ligand: FMN 200 uM): 214 nM
- apparent KD of MS2 coat protein [1]: 57.9 nM
- apparent KD of MS2 coat protein (input ligand: none): 73.9 nM

Sequence: AGGAAUGAAGGAUAUACAUGAGGAUCACCCAUGUAAAACAAGAGAUUUGAUGUAUAAUGUAGAAGGUCAAGAAG [JR_Exclusion3_Sub003] (puzzle: Exclusion 3)
- apparent KD of MS2 coat protein [2]: 25.2 nM
- apparent KD of MS2 coat protein [3]: 30.5 nM
- apparent KD of MS2 coat protein [4]: 35.5 nM

Sequence: AGGAGCCCACGGGCUCCAAAACAUGAGGAUCACCCAUGUCAGUAGGAUAUCAUGCUUUUCUGCUGUGAGAAGGGCUGAUGUGGC [Esededor] (Eterna round: R96, puzzle: Exclusion NG 3)
- apparent KD of MS2 coat protein (input ligand: FMN 200 uM): 199 nM
- apparent KD of MS2 coat protein [1]: 33.8 nM
- apparent KD of MS2 coat protein (input ligand: none): 49 nM

Sequence: AGGAUGAGAGGAUAUACAAACGGUCCCACAAUCUCACGGGCACAUGAGGAUCACCCAUGUAGAAGGCUCAUUGG [EX2 B.28] (Eterna round: R97, puzzle: Exclusion 2)
- apparent KD of MS2 coat protein (input ligand: FMN 200 uM): 325 nM
- apparent KD of MS2 coat protein (input ligand: none): 49.6 nM

Sequence: AGGCAAUCAGGAUAUACAUGAGGAUCACCCAUGUGUACAAAGCACAUCCGAUCUAGAUGUAGAAGGGAUAUGCA [Usmabesobi] (puzzle: Exclusion 3)
- apparent KD of MS2 coat protein [3]: 18 nM

Sequence: AGGUAACAUGAGGAUCACCCAUGUCAGGAUAUCAGUAAGAUGAGUAUAGAAGAGAGUAUGAGAAGGGACUAUAU [Excluse me! 25 - Jieux - Exclusion 1] (puzzle: Exclusion 1)
- apparent KD of MS2 coat protein [3]: 31.2 nM

Sequence: AGGUAACAUGAGGAUCACCCAUGUCAGGAUAUCAGUAAGAUGAGUAUAGAAUAGAGUAUGAGAAGGGACUAUAU [Excluse me! 24 - Jieux - Exclusion 1] (puzzle: Exclusion 1)
- apparent KD of MS2 coat protein [3]: 30.4 nM

Sequence: AGGUCCUUCUGGACACAUGAGGAUCACCCAUGUGCGGUCAGCGAGGAUAUCGGUCUAUAAUGUGACGAGAAGGCGCGGACCGAU [Ex NG3 #60] (Eterna round: R96, puzzle: Exclusion NG 3)
- apparent KD of MS2 coat protein (input ligand: FMN 200 uM): 38.9 nM
- apparent KD of MS2 coat protein [1]: 15.3 nM
- apparent KD of MS2 coat protein (input ligand: none): 20.7 nM

Sequence: AGGUGCUUCUGGAGACAUGAGGAUCACCCAUGUCGAGUCAGCGAGGAUAUCGGUAAGGCAUGUGAUGAGAAGGCGCAGACCGAU [Ex NG3 #51] (Eterna round: R96, puzzle: Exclusion NG 3)
- apparent KD of MS2 coat protein (input ligand: FMN 200 uM): 33.7 nM
- apparent KD of MS2 coat protein [1]: 20.3 nM
- apparent KD of MS2 coat protein (input ligand: none): 26.4 nM

Sequence: AGUAACUAUCACGAAAGUGAUAGUUACACAAGCAGUGAAACAUGAGGAUCACCCAUGUCCUCAUUAGCUCGUCUUAU [Sensor 3 - 32] (puzzle: Sensor v3, turn-off variant 2)
- apparent KD of MS2 coat protein [2]: 117 nM
- apparent KD of MS2 coat protein [3]: 729 nM
- apparent KD of MS2 coat protein [4]: 164 nM

Sequence: AGUAACUCAAGAGGAUAUCACAUGAGGAUCACCCAUGUAUAGCGCGCUAUGCUAGUCCUCGUAUUUGAGAAGGUUUGAUAAAUG [JL ViennaUCT Quve mod 2] (Eterna round: R96, puzzle: Exclusion NG 2)
- apparent KD of MS2 coat protein (input ligand: FMN 200 uM): 16.8 nM
- apparent KD of MS2 coat protein [1]: 13.1 nM
- apparent KD of MS2 coat protein (input ligand: none): 17.2 nM

Sequence: AGUAAGCUAGGAUAUGCUUUGGGAAAGCAUUCCUUCGAUAAACUUGAGGAUCACCCAAGUAGAAGGAGCUUACC [salish99_ex2_r4_002] (Eterna round: R97, puzzle: Exclusion 2)
- apparent KD of MS2 coat protein (input ligand: FMN 200 uM): 13.4 nM
- apparent KD of MS2 coat protein (input ligand: none): 12.4 nM

Sequence: AGUACUAACACGCAAGUGUUAGUACAAUAAGCUUGUGAAACAUGAGGAUCACCCAUGUCCUCAUAAGCUCGUCUUAU [salish99_TOv2_r3_027] (puzzle: Sensor v3, turn-off variant 2)
- apparent KD of MS2 coat protein [2]: 16.2 nM
- apparent KD of MS2 coat protein [3]: 490 nM
- apparent KD of MS2 coat protein [4]: 16.5 nM

Sequence: AGUACUAACACGCCUGUGUUAGUACAAUAAGCUUGUGAAACAUGAGGAUCACCCAUGUCCUCAUAAGCUCGUCUUAU [salish99_TOv2_r3_077] (puzzle: Sensor v3, turn-off variant 2)
- apparent KD of MS2 coat protein [2]: 16.3 nM
- apparent KD of MS2 coat protein [3]: 671 nM
- apparent KD of MS2 coat protein [4]: 15.4 nM

Sequence: AGUACUAACACGUAAGUGUUAGUACUAUAAGCUUGUGUUACAUGAGGAUCACCCAUGUCCUCAUAAGCUCGUCUUAA [Mat - Sensor v3 - Turn-off var 2 - D71] (puzzle: Sensor v3, turn-off variant 2)
- apparent KD of MS2 coat protein [2]: 34.3 nM
- apparent KD of MS2 coat protein [3]: 132 nM
- apparent KD of MS2 coat protein [4]: 39.4 nM

Sequence: AGUACUAACUCGAUAGUGUUAGUACAAUAAGCUUGUGAAACAUGAGGAUCACCCAUGUCCUCAUAAGCUCGUCUUAU [salish99_TOv2_r3_1004] (puzzle: Sensor v3, turn-off variant 2)
- apparent KD of MS2 coat protein [2]: 16.9 nM
- apparent KD of MS2 coat protein [3]: 726 nM
- apparent KD of MS2 coat protein [4]: 15.4 nM

Sequence: AGUACUAUCACGAAAGUGAUAGUACAAUAAGCUUGUGGAACAUGAGGAUCACCCAUGUCCUCAUAAGCUCGUCUUAU [Mat - Sensor v3 - Turn-off var 2 - D27] (puzzle: Sensor v3, turn-off variant 2)
- apparent KD of MS2 coat protein [2]: 15.7 nM
- apparent KD of MS2 coat protein [3]: 68.7 nM
- apparent KD of MS2 coat protein [4]: 14.7 nM

Sequence: AGUACUAUCACGAGAGUGAUAGUACAUUAAACUUGUGAGACAUGAGGAUCACCCAUGUCCUCAUGAGCUCGUCUUAA [Mat - Sensor v2 - var 2 - Mod - D185] (Eterna round: R96, puzzle: Sensor v2, turn-off variant 2)
- apparent KD of MS2 coat protein (input ligand: FMN 200 uM): 299 nM
- apparent KD of MS2 coat protein [1]: 96.1 nM
- apparent KD of MS2 coat protein (input ligand: none): 165 nM

Sequence: AGUACUAUGCGAGCUGACUUGCGUAGUGCAGCAGGUGAAACAUGAGGAUCACCCAUGUCCUCAUUUGCUCGUCUUAA [Mat - Sensor v3 - Turn-off var 2 - D3] (puzzle: Sensor v3, turn-off variant 2)
- apparent KD of MS2 coat protein [2]: 39.7 nM
- apparent KD of MS2 coat protein [3]: 563 nM
- apparent KD of MS2 coat protein [4]: 38 nM

Sequence: AGUACUAUGCGUGCUGACAUGCGUAGUGCAGCAGGUGUAACAUGAGGAUCACCCAUGUCCUCAUUUGCUCGUCUUAA [Mat - Sensor v3 - Turn-off var 2 - D13] (puzzle: Sensor v3, turn-off variant 2)
- apparent KD of MS2 coat protein [2]: 107 nM
- apparent KD of MS2 coat protein [3]: 224 nM
- apparent KD of MS2 coat protein [4]: 129 nM
